According to US20200317808A1 (AbbVie / Abbott, published 2020):
Positions count from the first letter of the chain named. In names and notes the source's numbering stands. One block for each molecule: values may come before it.

Legend:
[1] = target: T1, cynomolgus PD-1 Fc fusion (cynomolgus monkey, UniProt B0LAJ3 25-170); assay: ELISA on plate bound cynomolgus PD-1 Fc fusion
T1 construct: also called Cyno PD-1 (ELISA)

human PD-1 Fc fusion = target: T2, human PD-1 Fc fusion (human, UniProt Q15116 25-170); assay: ELISA on plate bound human PD-1 Fc fusion
T2 construct: also called Hu PD-1 (ELISA); not shown: Fc part of the fusion
T2 sequence (Q15116 25-170 limits assumed): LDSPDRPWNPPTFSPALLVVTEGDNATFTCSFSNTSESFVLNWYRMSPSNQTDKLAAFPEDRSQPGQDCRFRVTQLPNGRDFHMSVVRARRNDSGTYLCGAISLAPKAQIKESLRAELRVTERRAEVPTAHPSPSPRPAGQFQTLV

[2] = target: T3, Recombinant extracellular domain of human PD-1 (residues 1-167) (human, UniProt Q15116 25-167); assay: SPR, Biacore T200, antibody captured by anti-human Fc, PD-1 ECD as analyte
T3 construct: Bought from a commercial source; also called recombinant soluble PD-1 ECD; PD-1 ECD
T3 sequence (Q15116 25-167): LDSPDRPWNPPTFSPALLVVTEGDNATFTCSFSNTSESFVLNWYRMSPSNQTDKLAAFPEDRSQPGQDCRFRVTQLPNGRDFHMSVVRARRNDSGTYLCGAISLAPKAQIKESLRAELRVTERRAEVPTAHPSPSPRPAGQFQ
From the text: Unreacted moieties on the biosensor surface were blocked with ethanolamine.

[3] = target: T4, human PD-1 expressed on cells (human, UniProt Q15116 25-288); assay: flow cytometry on PD-1 expressing Jurkat cells; samples incubated 30 days at -80, 5, 25 or 40°C
T4 construct: also called cell surface PD-1; PD-1 in Jurkat cells
T4 sequence (Q15116 25-288 limits assumed): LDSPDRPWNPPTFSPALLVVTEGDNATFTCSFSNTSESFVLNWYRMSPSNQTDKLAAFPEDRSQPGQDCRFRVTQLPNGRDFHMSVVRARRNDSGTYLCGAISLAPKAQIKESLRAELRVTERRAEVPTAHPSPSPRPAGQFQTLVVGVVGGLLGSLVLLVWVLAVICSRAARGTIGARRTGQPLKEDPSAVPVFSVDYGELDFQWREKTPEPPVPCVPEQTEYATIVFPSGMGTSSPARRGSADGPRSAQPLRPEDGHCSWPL
Description: (§1) PD-1 expressing Jurkat cells were harvested from flasks and resuspended to 2×10⁶ cells/mL in PBS containing 1% BSA. 100 μL of cells were added to a round bottom 96 well plate containing 100 μL of titrated test antibody or isotype control. Cells were incubated with antibodies at room temperature for 25 minutes and then washed twice with PBS containing 1% BSA. The cell pellet was resuspended in 100 μL of a 1:250 diluted secondary antibody goat anti-human Fab PE. Following 25 minutes incubation at RT, cells were washed twice with PBS containing 1% BSA and resuspended in 200 μL of 1% BSA. Cells were analyzed using Becton Dickinson FACSCanto flow cytometer. Data was analyzed using BD FACSDiva software (version 8.0.1).

[4] = target: T4, human PD-1 expressed on cells; assay: flow cytometry on PD-1 expressing Jurkat cells
[5] = target: T4, human PD-1 expressed on cells; assay: cell-based or functional assay
[6] = target: T4, human PD-1 expressed on cells; assay: flow cytometry on activated human CD4+ T cells
Description: Cells were analyzed using Becton Dickinson FACSCanto flow cytometer. Data was analyzed using BD FACSDiva software (version 8.0.1).

[7] = target: T4, human PD-1 expressed on cells; assay: flow cytometry on human PD-1 transfected Jurkat cells
Description: as §1
(§2) The antibody variants were screened for binding to human PD-1 transfected Jurkat cells and EC₅₀ values were determined (FIG. 3B).

[8] = target: T4, human PD-1 expressed on cells; assay: flow cytometry on PD-1 expressing Jurkat cells; samples stored 30 days at the given temperature or oxidised with 1% hydrogen peroxide or 1% tert-butyl hydroperoxide
Description: as §1, §2

T1 sequence (B0LAJ3 entry or part of it limits assumed): as the sequence (Q15116 25-170 limits assumed) above, with D2E, P10A, V19L, T35A, Q75R, T144A counted along it

- binding result [7]: binds
B2: Humanized 12A11.2b with M99I in CDR-H3 (antibody, V domains shown)
VH: EIQLVQSGAEVKKPGSSVKVSCKASGYTFTHYGMNWVRQAPGQGLEWVGWVNTYTGEPTYADDFKGRLTFTLDTSTSTAYMELSSLRSEDTAVYYCTREGEGIGFGDWGQGTTVTVSS
VL: DVVMTQSPLSLPVTPGEPASISCRSSQSIVHSHGDTYLEWYLQKPGQSPQLLIYKVSNRFSGVPDRFSGSGSGTDFTLKISRVEAEDVGVYYCFQGSHIPVTFGQGTKLEIK
notes: also called Hu12A11.2b2; M99I variant

- binding result [8]: binds
B3: Humanized 12A11.2b with mouse CDRs (antibody, V domains shown)
VH: B2 VH with I103M
VL: B2 VL
notes: also called Hu12A11.2b1; M99 parent antibody

- binding result [7]: binds
B4: Humanized 12A11.2b with M99V in CDR-H3 (antibody, V domains shown)
VH: B2 VH with I103V
VL: B2 VL
notes: also called Hu12A11.2b3; M99V variant

Second part, the molecule before the results:

Molecule: Nivolumab (antibody)
- EC50 [1]: 0.07 nM

B1: Humanized 12A11.2b with M99L in CDR-H3 (antibody, V domains shown)
VH: B2 VH with I103L
VL: B2 VL
notes: It was detected with anti-human Fab and captured with anti-human IgG Fc; also called Hu12A11.2b4; humanized antibody 12A11.2b M99L
- EC50 (human PD-1 Fc fusion): 0.197 nM
- EC50 [1]: 0.102 nM
- Kd [2]: 2.1 nM
- EC50 (read off the curve) [3]: ~0.01 µg/mL
- EC50 [4]: 0.045 nM
- Jurkat NFAT EC50 [5]: 4.5 µg/mL
- EC50 [6]: 0.18 nM
